T1: recombinant mouse FcRn (Mus musculus, UniProt Q61559)
T1 construct: purchased R&D 6775-FC-050
T1 sequence (Q61559 22-297 limits assumed): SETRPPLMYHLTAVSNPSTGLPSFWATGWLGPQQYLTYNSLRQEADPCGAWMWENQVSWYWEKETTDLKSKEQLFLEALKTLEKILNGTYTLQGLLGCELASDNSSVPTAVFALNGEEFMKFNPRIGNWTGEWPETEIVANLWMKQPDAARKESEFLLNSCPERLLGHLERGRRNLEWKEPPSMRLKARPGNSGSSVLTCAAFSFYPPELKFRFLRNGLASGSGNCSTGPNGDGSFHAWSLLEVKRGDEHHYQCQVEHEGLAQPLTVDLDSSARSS
T1 sequence (P01887 21-119 partner): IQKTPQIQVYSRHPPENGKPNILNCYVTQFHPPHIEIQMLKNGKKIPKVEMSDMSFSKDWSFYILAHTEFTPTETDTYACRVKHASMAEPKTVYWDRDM

B1: control molecule: "unconjugated control Fc molecule (m-IgG2a type; SEQ ID NO: 2)" (protein, listed as Mus musculus)
chain: PRGPTIKPCPPCKCPAPNLLGGPSVFIFPPKIKDVLMISLSPIVTCVVVDVSEDDPDVQISWFVNNVEVHTAQTQTHREDYNSTLRVVSALPIQHQDWMSGKEFKCKVNNKDLPAPIERTISKPKGSVRAPQVYVLPPPEEEMTKKQVTLTCMVTDFMPEDIYVEWTNNGKTELNYKNTEPVLDSDGSYFMYSKLRVEKKNWVERNSYSCSVVHEGLHNHHTTKSFSRTPGK
B2: Conjugate 15 (conjugate)
chain: PRGPTIKPCPPCKCPAPNLLGGPSVFIFPPKIKDVLMISLSPIVTCVVVDVSEDDPDVQISWFVNNVEVHTAQTQTHREDYNSTLRVVSALPIQHQDWMSGKEFKCKVNNKDLPAPIERTISKPKGSVRAPQVYVLPPPEEEMTKKQVTLTCMVTDFMPEDIYVEWTNNGKTELNYKNTEPVLDSDGSYFMYSKLRVEKKNWVERNSYSCSVVHEGLHNHHTTKSFSRTPGKHHHHHH
modifications: cyclised or stapled

Legend:
[1] = system: E. coli ATCC 25922; assay: Complement-dependent cytotoxicity (CDC) assay; assay type: cell-based, Escherichia coli; conditions: 0.2 uM; 10% normal human serum; 90 minutes
Experimental: Gram-negative bacteria were cultured overnight in Luria-Bertani (LB) (BD Difco™ Cat. 244620) at 37° C. under constant agitation. The next day, bacteria were grown to log phase until the OD600 reached 0.4 (˜10^8 CFU/mL). Bacteria were washed in DPBS pH 7.4 (Gibco 10010-023) resuspended in RPMI 1640 (Gibco 11-835-055) at 10^6 CFU/mL and […] was added to the wells of a 96-well, TC-treated, polystyrene plate (Fisher 08-772-2C).
The plates were incubated at 37° C. for 90 minutes. At the end of the assay, wells were serially diluted in sterile water and remaining bacteria were cultured overnight at 37° C. on agar plates. Colonies were counted the next day and CFU/mL and % survival normalized to RPMI control was determined using the following equations: CFU/mL=(colonies*dilution factor)/volume and […] normalized to RPMI=([CFU/mL of test condition]/[CFU/mL of molecule in RPMI])*100.

[2] = system: Escherichia coli BW25113 4X-12 (COL-R); assay: MIC assay (broth microdilution), Ec BW 4X-12 (COL-R); assay type: cell-based; conditions: assay media RPMI A
Experimental: (§1) Bacterial strains were stored as glycerol stocks at −80° C. prior to culturing on cation-adjusted Mueller-Hinton agar (MHA; BD cat. no. 211438) at 37° C. Antibacterial activity was assessed against a panel consisting of Escherichia coli, Acinetobacter baumannii, Pseudomonas aeruginosa, and Klebsiella pneumoniae strains (see Table 2).
(§2) Briefly, stock solutions of all antibacterial agents were prepared fresh in appropriate solvents (i.e. PBS, pH 7.4, DMSO, DI, etc.). Stock concentrations were made at 50× the highest final assay concentration and serially diluted 2-fold, 8 or 12 times in a 96-well PCR plate (VWR cat. no. 83007-374). Bacterial cell suspensions generated from MHA plate cultures were prepared in 0.85% saline and adjusted to ˜0.1 OD600 nm. Next, cell suspensions were diluted 1:200 in RPMI containing 5% Luria Broth (LB) to improve bacterial growth (BD Difco, cat. no. 244620) to a concentration of ˜5×10^5 CFU (colony-forming units)/mL. […] Later, conjugates 16 and 17, and 20-25 were evaluated in RPMI 1640 medium (+) L-glutamine, (+) sodium bicarbonate, pH 7.4 (“RPMI B”; Gibco, cat. no. 11875-085) as has been described as a more physiologically-relevant media for susceptibility testing of antibacterial compounds. Dorschner R A et al., The mammalian ionic environment dictates microbial susceptibility to antimicrobial defense peptides. FASEB J. 20(1):35-42 (2017). Ninety-eight microliters of each cell suspension in MHB were added to test wells in a 96-well assay plate (Costar cat. no. 3370). A Beckman Multimek 96 liquid handling robot was used to dispense 2 μL of each 50× stock compound into the plate containing 98 μL of each strain in MHB (2% final solvent concentration). E. coli strains BW25113 and ATCC 25922 were run in the presence and absence of 50% heat-inactivated fetal bovine serum (FBS; Sigma, cat. no. F4135-100 mL). Plates were mixed by shaking then incubated at 37° C. overnight (16-20 h).

[3] = system: Pseudomonas aeruginosa PAO1; assay: MIC assay (broth microdilution), Pa PAO1; assay type: cell-based; conditions: assay media RPMI A
Experimental: as §1, §2

[4] = system: Escherichia coli ATCC 25922; assay: MIC assay (broth microdilution), Ec 25922; assay type: cell-based; conditions: assay media RPMI A
Experimental: as §1
(§3) Briefly, stock solutions of all antibacterial agents were prepared fresh in appropriate solvents (i.e. PBS, pH 7.4, DMSO, DI, etc.). Stock concentrations were made at 50× the highest final assay concentration and serially diluted 2-fold, 8 or 12 times in a 96-well PCR plate (VWR cat. no. 83007-374). Bacterial cell suspensions generated from MHA plate cultures were prepared in 0.85% saline and adjusted to ˜0.1 OD600 nm. […] Dorschner R A et al., The mammalian ionic environment dictates microbial susceptibility to antimicrobial defense peptides. FASEB J. 20(1):35-42 (2017). Ninety-eight microliters of each cell suspension in MHB were added to test wells in a 96-well assay plate (Costar cat. no. 3370). A Beckman Multimek 96 liquid handling robot was used to dispense 2 μL of each 50× stock compound into the plate containing 98 μL of each strain in MHB (2% final solvent concentration). E. coli strains BW25113 and ATCC 25922 were run in the presence and absence of 50% heat-inactivated fetal bovine serum (FBS; Sigma, cat. no. F4135-100 mL). Plates were mixed by shaking then incubated at 37° C. overnight (16-20 h).

[5] = system: Escherichia coli ATCC BAA-2469; assay: MIC assay (broth microdilution), Ec 2469; assay type: cell-based; conditions: assay media RPMI A
Experimental: as §1, §3

[6] = system: Escherichia coli BW25113 + pUC18-mcr-1; assay: MIC assay (broth microdilution), Ec BW (mcr-1); assay type: cell-based; conditions: assay media RPMI A
Source text: An mcr-1 expression plasmid was constructed (GenScript; Piscataway, N.J.) using the pUC18 high copy number plasmid (Yanisch-Perron, et al., 1985). A 1649-bp fragment was synthesized containing, in order from 5′ to 3′: EcoR1 restriction site (5′-GAATTC-3′), a ribosomal binding site (5′-AGGAGG-3′), a 5-bp native start codon upstream sequence (5′-TTCTC-3′) from the mcr-1-bearing plasmid pHNSHP45 (Liu, Y Y, et al., 2015; GenBank Accession #KP347127), the 1626-bp mcr-1 open reading frame with stop codon (“orf00073” of GenBank Accession #KP347127), and finally an Xba1 restriction site sequence (5′-TCTAGA-3′). […] The pUC18-mcr-1 plasmid was transformed into chemically-competent E. coli BW25113 (Coli Genetic Stock Center #7636) as described previously (Chung, et al., PNAS. 1989), recovered for 1 h shaking at 37° C. in Super Optimal broth with Catabolite repression (SOC) media and then aliquots were plated on Luria-Bertani (LB) media containing 100 μg/mL of carbenicillin. Putative transformant colonies were then verified in MIC assays.
as §1
Briefly, stock solutions of all antibacterial agents were prepared fresh in appropriate solvents (i.e. PBS, pH 7.4, DMSO, DI, etc.). Stock concentrations were made at 50× the highest final assay concentration and serially diluted 2-fold, 8 or 12 times in a 96-well PCR plate (VWR cat. no. 83007-374). Bacterial cell suspensions generated from MHA plate cultures were prepared in 0.85% saline and adjusted to ˜0.1 OD600 nm. […] Later, conjugates 16 and 17, and 20-25 were evaluated in RPMI 1640 medium (+) L-glutamine, (+) sodium bicarbonate, pH 7.4 (“RPMI B”; Gibco, cat. no. 11875-085) as has been described as a more physiologically-relevant media for susceptibility testing of antibacterial compounds. […]

[7] = system: Escherichia coli BW25113; assay: MIC assay (broth microdilution), Ec BW; assay type: cell-based; conditions: assay media RPMI A
Experimental: as §1, §3

[8] = system: Acinetobacter baumannii ATCC 19606; assay: MIC assay (broth microdilution), Ab 19606; assay type: cell-based; conditions: assay media RPMI A
Experimental: as §1, §3

[9] = molecular target: T1, recombinant mouse FcRn; assay: Binding of conjugates to FcRn (ELISA), mouse; conditions: pH 6.25; 20 μg/mL starting concentration, 2-fold diluted
Experimental: 96-well ELISA plates (Fisher, Cat. No. 12-565-136) were coated with 0.25 μg/well of recombinant mouse FcRn (R&D, Cat. No. 6775-FC-050) or recombinant human FcRn (R&D, Cat. No. 8639-FC-050) in carbonate-bicarbonate buffer (Sigma, Cat. No. C34041) at pH 6.25 overnight at 37° C. A pH of 6.25 was maintained during the complete experiment. Blocking was carried out with 5% skim milk in PBS with 0.05% Tween 20. Purified conjugates were added at 20 μg/mL starting concentration and serially 2-fold diluted in blocking buffer. For detection, HRP-labeled secondary anti-mouse IgG-HRP (GE Healthcare, Cat. No. NA931V) or anti-human IgG-HRP (GE Healthcare, Cat. No. NA933V) was used to detect the bound conjugates. Absorbance was measured at 450 nm with a 96-well microplate reader and data were analyzed using GraphPad Prism software, FIGS. 33A-33F.

[10] = system: Acinetobacter baumannii ABS075-UW; assay: MIC assay (broth microdilution), Ab ABS075; assay type: cell-based; conditions: assay media RPMI A
Experimental: as §1, §3

Molecule | antibacterial activity in the presence of 10% complement active NHS [1] | MIC, Ec BW 4X-12 (COL-R) [2] [µg/mL] | MIC Pa PAO1 [3] [µg/mL] | MIC, Ec 25922 [4] [µg/mL] | MIC, Ec 25922 + FBS ([4]; 50% heat-inactivated FBS) [µg/mL] | MIC, Ec 2469 [5] [µg/mL] | MIC, Ec BW (mcr-1) [6] [µg/mL] | MIC, Ec BW [7] [µg/mL] | MIC, Ec BW + FBS ([7]; 50% heat-inactivated FBS) [µg/mL] | MIC Ab 19606 [8] [µg/mL] | binding to mouse FcRn (ELISA) [9] | MIC Ab AB5075 [10] [µg/mL]
B1 | no antibacterial activity | – | – | – | – | – | – | – | – | – | – | –
B2 | – | >128 | 16 | >128 | >128 | >128 | >128 | >128 | >128 | >128 | does not interfere with FcRn interaction | >128
